Results taken from the nanobody polyreactivity screen of Harvey et al. (2022).

Test: yeast display, Sf9 membrane polyspecificity reagent, FACS + sequencing; frameworks hold sequencing errors
Method in brief: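 Synthetic nanobody libraries on Saccharomyces cerevisiae BJ5465 were galactose-induced for 36–48 hours, stained 1 hour at 4 °C with 10% biotinylated, detergent-solubilized Sf9 membrane reagent and enriched on streptavidin microbeads. FACS then separated cells into low and high (top ~1%) gates by anti-HA (expression) and streptavidin (reagent binding) fluorescence. Genes were colony-PCR amplified, MiSeq 2 × 250 sequenced and CDR-length filtered. A clone's polyreactivity label is that of its gate of origin.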

| Sequence | polyreactivity (PSR sort gate) |
| --- | --- |
| QVQLVESGGGLVQAGGSLRLSCAASGFTFDFYAMGWYRQAPGKERELVAAISRRGGRTSYADSVKGRFTISRDNAKNTVYLQMNSLKPEDTAVYYCAAASLGGDGLVAYYYWGQGTQVTVSS | high polyreactivity |
| QVQLVESGGGLVQAGGSLRLSCAASGRTFRLNAMGWYRQAPGKERELVARITGSSGGSTYYADSVKGRFTISRDNAKNTVYLQMNSLKPEDTAVYYCNKRVGFLYKYDYWGQGTQVTVSS | high polyreactivity |
| QVQLVESGGGLVQAGGSLRLSCAASGSIFQRTAMGWYRQAPGNERELVASINSGGSTNYADSVKGRFTISRDNAKNTVYLQMNSLKPEDTAVYYCAAVRPWWRNKPQWPRYDYWGLGTQVTVSS | low polyreactivity |
| QVQLVESGGGLVQAGGSLRLSCASSGIIFHYYAKGWYRQAPGKERELVATISWDGGNTYYADSVKGRFTISRDNAKNRVYLQMNSLKPEDTAVYYCNVYDKAPAYAYWGQGTQVTVSS | low polyreactivity |
| QVQLVESGGGLVQAGGSLRLSCAASGRTFRYNAMGWYRQAPGKERELVAAISTRGGSTYYADSVKGRFTISRDNAKNTVYLQMNSLKPEDTAVYYCAVTPRIPGHFEDYYWGQGTQVTVSS | low polyreactivity |
| QVQLVESGGGLVQAGGSLRLSCASSGRTFRGYVMGWYRQAPGKERELVASISYSGGSTYYADSVKGRFTISRDNAKNTVYLQMNSLKPEDTAVYYCAARKGYDQYRWRYSQNNYWGQGTQVTVSS | high polyreactivity |
| QVQLVESGGGLVQAGGSLRLSCAASGSTFPPNGMGWYRQAPGKERELVAAIRWRGGSTYYADSVKGRFTISRDNAKNTVYLQMNSLKPEDTAVYYCAKYVTYSRPTNSPSGKHVYWGQGTQVTVSS | low polyreactivity |
| QVQLEESGGGLVQAGGSLRLSSAASGGIFDVSHMGWYRQAPGKERELVAAISENGGSTYYADSVKGRFTISRDNAKNTVYLLMNSLKPADTAVYYCAADYVSLSVFSYWAWYDYWGHGTQVTVSS | low polyreactivity |
| QVQIVESGGGLVQAGGSLRLSCASSGSTMPAYTMGWYRQAPGKERELVADISRRGGSTYYADSVKGRFTISRDNAKNNVYLHMNSLKPEDTPVYYCATTAKKSYDYWGQGTHVTVSS | high polyreactivity |
| QVQLVESGGGLVQAGGSLRLSCAASGSIFAINVMGWYRQAPGKEREFVAAISVRSGSTYYADSVKGRFTISRDNAKNTVYLQMNSLKPEDTAVYYCARDSYYIGRWLYYWGQGTQVTVSS | high polyreactivity |
| QVQLVESGGGLVQAGGSLSLSCAASGRTFRVYAMGSYRQSPRKERELVAAITNGGSTNYADSVKGRFTISRDNAKNTVYLQMNSLKPEDTAVYYCARVHRSYVAAQGVYVGNYYWGQGTQVTVSS | high polyreactivity |
| QVQLVESGGGLVQAGGSLRLSCAASGIIFYAYAMGWYRQAPGKERELVARISRGGSTNYADSVKGRFTISRDNAKNTFYLQMNSLKPEDTAVYYCAAYYAYLRYGGLYEYWGQGTQVTVSS | high polyreactivity |
| QVQLVESGGGLVQAGGSLRLSCAASGSTFARYAMGWYRHAPGKETELVAGIWNTGRTYYADSVKGRFTISRDNAKNTVYLQMNSLKPEDTAVYYCAALYNSPNVTYYYWGQGTQVTVSS | high polyreactivity |
| QVQLVESGGGLVQAGGSLRLSCAASGRTFVFNAMGWYRQAPGKERELVAAISRSGGSTYYADSVKGRFTISRDNAKNTVYLQMNSLKPEDTAVYYCAADKYYLFALYEYGYWGQGTQVTVSS | high polyreactivity |
| QVQLVESRGGLVQAGGSLRLSCAASGLIFRHYAMGWYRQAPGKERELVAAITGSGSTYYADSVKGRFTISRDNAKNTVYFQMNSLKPEDTAVDYCAATVYSSGAMDYWGQGTQVTVSS | low polyreactivity |
| QVQLVESGGGLDQAGGSLRLSCAASGSIFVTNVMGGYRQAPGKERELVAAISSSGTRTYADSVKGRFTISRDNAKNTVYLQMNSLKTEDTAVYYCAKDYRVWVAATIAHDYWGQGTQVTVSS | low polyreactivity |
| QVQLVESGGGLVQAGGSLRFSCAASGSTFRKNAMGWYRQAPGKERELFASISISGGRTNYADSVKGRFTISRDHAKNTVYLQLNSLKPEDTAVYDCAATTSPRSARYYYWGQGTQVTVSS | high polyreactivity |
| QVQLVESGGGLVQAGGSLRLSCAASGFIFRYYAMGWSRQAPGIEMELVAAINASGGRTYYADSVKGRFTISRDNARNTVYLQMNSLKPEDTAVYYCAAYRSYQTFDYWGQGTQVTVSS | high polyreactivity |
| QVQHVESGGGLVQAGGSLRLSCAASGSIFKPYAMGWYRLAPGKEREFVAAITSSDGTTYYADSVKGRFTISRDNAKNTVYVQMNSLKPEDTAVYYCNAEYYAKYVPFTKYYYWGQGTQVTVSS | low polyreactivity |
| QVQLVESGGGLVQAGGSLRLSCAASGSTFGRNAMGWYRQAPGKERELVAAISKTGGSTYYADSVKGRFTISRDNAKNTVYLQMNSLKPEDTAVYYCAARIRGFRTYYYWGQGTQVTVSS | high polyreactivity |
| QVQLVESGGGLVQAGGRLRLSCDASGITFISNTMGWSRQAPGKERELVAAISWTGGSTYYADSVKGRFTISRDNAKNTVYLQMNSQKPEDTAVYYCNAVRYYVYSTQYDYWGEGTQVTVSS | high polyreactivity |
| QVQLVESGGGLVQAGGSLRLSCAGSGRIFREYPMGAYRHAPGKARELVAAITASGGGTYYADSVKGRFTLSRDNAKNTVYLQMNSLKPEDSAVYYCNAVLAPGGYDYWGQGTQVTVSS | low polyreactivity |

| Sequence | polyreactivity (PSR sort gate) |
| --- | --- |
| QVQLVESGGGLVQAGGSLRLSCAASGSTSYWYAMGWYRQAPGKERELVAAISSDDSTNYADSVKGRFTISRDNAKNTVYLQMNSLKPEDTAVYYFNREHYLIRYDYWGQGTQVTVSS | low polyreactivity |
| QVQLVESGGGIVQAGGSLRLSCTASGFTFVYYAMGWYRQAPGKERELVASISRSGGSTYYADSVKGRFTISRDNAKNTVYLQMNSLKPEDTGVYYCNARYGRTALLDYWGQGTQVTVSS | high polyreactivity |
| QVQLVETGGGLVQAGGSLRLSCAASGIIFFYYGMGWYRQAPGKERELVARISSGGSTNYADSVKGRFTISRDNAKNTVYLHMNSLKQEDTAVYYCAARISTRYGYWGPGTQVTVSS | low polyreactivity |
| QFQLVESGGGLVQARGSLRLSCAPSGRTFGIYTMGWYRPAPGKERELVAAISAGGGRTSYADSVKGRFTISRDHAKNTVYLQMMSLKPEDTAVYYCAARVYQYRNEDTTRRAGRSYWGQGTQVTVSS | high polyreactivity |
| QVQLVESGGGLVQAGGSLRLSCAASGRTLTGNAMGWYRPAPGKERELVAVISYSGTNTRYADSVKGRFTISRDNAKNTVYLQMNSLKPEDTAVYYCAADWLGISVVRDPFDHWGQGTQVTVSS | high polyreactivity |
| QVQLVESGGGLVQAGGSLRLSCAASGSIFQPNGMGWYRQAPGQEREFVARIDRSGGSTYYADSVKGRFTISRDNAKNTVYLQMNSLKPEDTAVYYCHAAGEVIGYDYWGQGTQVTVSS | low polyreactivity |
| QVQLVESGGGLVQAGGSLRLSSAASGRTLRGYAMGWYRQAPGKERELVAAITWSGGSTYYADSVKGRFTISRDNAKNTVYLQMNSLKPEDTAVYYCNARSYPDLYDYWGQGTQVTVSS | low polyreactivity |
| QVQLVESGGGLVQAGGSLRLSCAASGFTFGFYAMGWYRQAPGKERELVAAISKRGGSTYYADSVKGRFTISRDNAKNTVYLQMNSLKPEDTAVYYCAAVYTQSRGWEYDYWGQGTQVTVSS | high polyreactivity |
| QVQLVESGGGLVQAGGSLRLSCAASGITFEIYAMGWYRQAPGKERELVAAITWRGGSTYYADSVKGRFTISRDNAKNTVYLQMNSLKPDDTAVYYCAAEQYSGEDWGDYWGQGTQVTVSS | low polyreactivity |
| QVQLVESGGGLVQAGGSLRLSCAASGSIFAYNAMGWYRQAPGKERELVAAISAGGRTKYADSVKGRFTISRDNAKNTVYLQMNCLKPEDTAVYYCAAESYTGKYSWVWKWYDYWGQGTQVTVSS | low polyreactivity |
| QVQLVESGGGLVQAGGSLRLSCSASGSIFKIYAMGWYRQAPGKERELVASITGSGGSTYYADSVKGRFTISRDNAKNTVYLQMNSLKPEDTAVYYCAAAVLGSSKSEVDPDRPEYYYWGQGTQVTVSS | low polyreactivity |
| QVQLVESGGGLVQAGGSLRLSCAASGITFQKYVMGWYRQAPGKEREFVAAITARGGTTYYADSVKGRFTISRDNAKNTVYLQMNSLKPEDTAVYYCAARSYYSGLAYYYWGQGTQVTVSS | high polyreactivity |
| QVQLVESGGGLVQAGGSLRLSCAASGRIFTKYAMGWYRQAPGKERELVAGINWRDGRTYYADSVKGRFTLSRDNAKNTVYLQMISLKPVDTAVYYCAGVSIFGRRWMYYWGQGTQVTVSS | high polyreactivity |
| QVQLVESGGGLVQAGGSLRLSCAASGSIFPYNAMGWYRQAPGKERELVAAITTSGTSTYYADSVKGRFTISRDNAKNTVYLQMNSLKPEDTAVYYCAATSRGAISKARFYYWGQGTQVTVSS | high polyreactivity |
| QVQLVESGGGLVQAGGSLRLSCAASGFTFPNAMGWYRQAPGKERELVATISSSGGSTYYADSVKGRFTISRDNAKNTVYLQMNSLKPEDTAVYYCAARTRQYWIYRAYRDDYWGQGTQVTVSS | low polyreactivity |
| QVQLVESGGGLVQAGGSLRLSCAASGLIFYGNAMGWYRQAPWKERELVAAITGGGGNTYYADSVKGRFTISRDNAKITFFLQMISLKPEDTAVYYCASASSTAYVRYYYWGQGTQVTVSS | high polyreactivity |
| QVQLEESGGGLVQAGGSLRLTCAASGSTVDKNDMGWYRPEPGQESELVAASTSSGSSTYYADSVKGRFTISRDNAKNTVYLQMNSLKPEDTAVYYCAADKYYYDRLSPSGDYLGQGTQVTVSS | low polyreactivity |
| QVQLVESGGGLVQAGGSLRLSCAASGFIFKHYAMGWYRPAPGKERELVAAITRSGGRTYYADSVKGRFTISRDYAKNTVYLQMNSLKPEDTAVYYCNVDGKKRHYRHYYLSAYDYWGQGTQVTVSS | high polyreactivity |
| QVQLVESGVGLVQAGGSLRLSCAASGSTFYVYTMGWYRQAPGKERELVAAISLSGDNTYYADSVKGRFTISRDNAKNTVYLQMNSLKPEDTAVYYCAADVFYSPSAQKYDSWGQGTQVTVSS | low polyreactivity |
| QVQLVESAGGLVQAGGSLRLSCAASGSTFDYYAMGWYRQAPGKERELVASITWGDGSTYYADSVKGRFTISRDNAKNTVYLQMNSLKPEDTAVYYCNADDTQLESYAPGHGYDYWGQGTQVTVSS | low polyreactivity |
| QVQLVESGGGFDQAGGSLRLSCAACGSIFWSNAMGWYRQAPGKERELVAAISSGGSTYADSVKGRLTISRDNAKNTVYLQMNSLKPEDNAVYYCNADVLYGDCYRGGYWGQGTQVTVSS | low polyreactivity |
